Patent US12139520B2 (priority 2020, dated 2024)
Numbered stars: 1 amine (or outer) side, 2 acyl side, 3 side chain; on linkers, the order of the positions; unused ones are H or OH. Bridge positions count the residues as written; N and C are the ends. Square brackets hold non-standard residues; d marks the D form. Side chains are listed from the residue outwards. Ends that are not written are not given here. * marks the point of attachment. C20 diacid = O=C(O)CCCCCCCCCCCCCCCCCCC(=O)*; γGlu = O=C(O)[C@H](CCC(=O)[*:2])N[*:1]; Hyp = O=C(O)[C@@H]1C[C@@H](O)CN1; NMeI = CC[C@H](C)[C@H](NC)C(=O)O; AEEA = NCCOCCOCC(=O)O; Sar = CNCC(=O)O

T1: hAMY3R (human, UniProt P30988)
T1 sequence 1: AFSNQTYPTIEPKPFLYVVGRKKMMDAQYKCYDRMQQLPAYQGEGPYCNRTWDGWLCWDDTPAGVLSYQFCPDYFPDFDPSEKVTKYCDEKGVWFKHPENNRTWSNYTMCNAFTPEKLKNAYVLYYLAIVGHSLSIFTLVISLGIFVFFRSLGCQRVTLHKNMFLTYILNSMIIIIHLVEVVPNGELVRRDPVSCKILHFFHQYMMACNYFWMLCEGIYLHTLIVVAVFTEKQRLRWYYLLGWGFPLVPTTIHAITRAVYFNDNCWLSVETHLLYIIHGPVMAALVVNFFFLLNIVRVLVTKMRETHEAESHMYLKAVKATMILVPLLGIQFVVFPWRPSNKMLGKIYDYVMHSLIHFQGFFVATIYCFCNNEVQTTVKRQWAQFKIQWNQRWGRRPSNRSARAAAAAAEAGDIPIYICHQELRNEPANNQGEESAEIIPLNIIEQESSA
T1 sequence 2: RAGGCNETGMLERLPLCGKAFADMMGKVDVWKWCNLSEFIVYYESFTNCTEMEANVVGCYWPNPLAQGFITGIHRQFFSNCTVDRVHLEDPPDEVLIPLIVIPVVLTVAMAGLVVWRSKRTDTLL


Tests used:
hAM1R = hAM1R (human, UniProt Q16602); experiment: cell-based or functional assay
hAMY3R = molecular target: T1, hAMY3R; experiment: cell-based or functional assay

| hAM1R EC50 (cAMP) (hAM1R) | hAMY3R EC50 (cAMP) (hAMY3R) | Binder |
| --- | --- | --- |
| > 5000 nM | 0.014 nM | {C20 diacid-γGlu}-KCNTATCTVQRLAHQIAQFSDKDKDNVAPPTNVGSNG[Hyp]-NH2 (disulfide 2-7 (inferred); not fully specified; ends not checked) [SEQ ID NO: 79] |
| > 5000 nM | 0.015 nM | {C20 diacid-γGlu}-KCNTATCTVQRLAHQIAQFTDKNKDNVAPPTNVGSNG[Hyp]-NH2 (disulfide 2-7 (inferred); not fully specified; ends not checked) [SEQ ID NO: 87] |
| 58.5 nM | 0.016 nM | GCRFGTCTVQRLAHQIYQFTDKDKDNVAPRTNVGPNG[Hyp]-NH2 (disulfide 2-7 (inferred); ends not checked) [SEQ ID NO: 90] |
| > 5000 nM | 0.016 nM | {C20 diacid-γGlu}-KCNTATCTVQRLAHQIAQFYDKDKDNVAPPTNVGSNG[Hyp]-NH2 (disulfide 2-7 (inferred); not fully specified; ends not checked) [SEQ ID NO: 94] |
| 2980 nM | 0.015 nM | GCRTGTCTVQRLAHQIYQFTDKDKDNVAPRTNVGPNGY [SEQ ID NO: 84] |
| 66.9 nM | 0.017 nM | GCRFGTCTVQRLAHQIYQFTDKDKDNVAPRTNVSPNGY [SEQ ID NO: 98] |
| > 5000 nM | 0.015 nM | {C20 diacid-γGlu}-KCNTATCTVQRLAHQIVQFTDKDKDNVAPPTNVGSNG[Hyp]-NH2 (disulfide 2-7 (inferred); not fully specified; ends not checked) [SEQ ID NO: 85] |
| > 5000 nM | 0.016 nM | {C20 diacid-γGlu}-KCNTATCTVQRLAEQIYQFTDKDKDNVAPPTNVGSNT[Hyp]-NH2 (disulfide 2-7 (inferred); not fully specified; ends not checked) [SEQ ID NO: 96] |
| 612 nM | 0.015 nM | {C20 diacid-γGlu}-KCNTATCTVQRLAHQIYQFTNKDKDNVAPPTNVGSNG[Hyp]-NH2 (disulfide 2-7 (inferred); not fully specified; ends not checked) [SEQ ID NO: 82] |
| > 5000 nM | 0.015 nM | KCNTATCTVQRLAEQIYQFK([AEEA-AEEA-γGlu-C20 diacid])DKDKDNVAPPTNVGSNG[Hyp]-NH2 (disulfide 2-7 (inferred); not fully specified; ends not checked) [SEQ ID NO: 89] |
| > 5000 nM | 0.018 nM | {C20 diacid-γGlu}-KCNTATCTVQRLAHQIYQFYDKDKDNVAPPTNVGSNG[Hyp]-NH2 (disulfide 2-7 (inferred); ends not checked) [SEQ ID NO: 104] |
| 364 nM | 0.017 nM | {C20 diacid-γGlu}-KCNTATCTVQRLAHQIYQFTDKDKDNVAPRTKVGSNG[Hyp] (disulfide 2-7 (inferred); ends not checked) [SEQ ID NO: 99] |
| > 5000 nM | 0.015 nM | {C20 diacid-γGlu}-KCNTSTCTVQRLAHQIAQFTDKDKDPVAPPTNVGSNG[Hyp]-NH2 (disulfide 2-7 (inferred); not fully specified; ends not checked) [SEQ ID NO: 88] |
| 138 nM | 0.015 nM | GCRFGTCTVQRLAHQIYQFTDKDKDNVAPRTNIGPNG[Hyp]-NH2 (disulfide 2-7 (inferred); ends not checked) [SEQ ID NO: 81] |
| > 5000 nM | 0.016 nM | {C20 diacid-γGlu}-KCNTATCTVQRLAHQIAQFTNKDKDNVAPPTNVGSNG[Hyp]-NH2 (disulfide 2-7 (inferred); not fully specified; ends not checked) [SEQ ID NO: 95] |
| 933 nM | 0.016 nM | {C20 diacid-γGlu}-KCNTATCTVQRLAHQIAQFTDKDKDPVAPPTNVGSNG[Hyp]-NH2 (disulfide 2-7 (inferred); not fully specified; ends not checked) [SEQ ID NO: 92] |
| > 5000 nM | 0.006 nM | RCNASTCTVNRLADQITQFSNKDKAQVSPPTEVGPNS[Hyp]-NH2 (disulfide 2-7 (inferred); ends not checked) [SEQ ID NO: 9] |

More lines, now with the values behind:

| Binder | hAM1R EC50 (cAMP) (hAM1R) | hAMY3R EC50 (cAMP) (hAMY3R) |
| --- | --- | --- |
| KCNAATCTVQRLAEQIYQFTDKDKDNVAPPTNVGSNG[Hyp]-NH2 (disulfide 2-7 (inferred); ends not checked) [SEQ ID NO: 101] | > 5000 nM | 0.017 nM |
| {C20 diacid-γGlu}-RCQTATCATERLAHFLQRSSF[Sar]A[NMeI]LSSTEVGSNT[Hyp]-NH2 (disulfide 2-7 (inferred); not fully specified; ends not checked) [SEQ ID NO: 80] | 44.3 nM | 0.015 nM |
| {C20 diacid-γGlu}-KCNTATCTVQRLAHQIYQFTDKNKDNVAPPTNVGSNG[Hyp]-NH2 (disulfide 2-7 (inferred); not fully specified; ends not checked) [SEQ ID NO: 91] | 840 nM | 0.016 nM |
| KCNTATCATQRLANFLVHSSNNFGAIAPSTKVGSNGY [SEQ ID NO: 93] | > 5000 nM | 0.016 nM |
| KCNFATCTVQRLAHQIYQFTDKDKDNVAPPTEVGSNG[Hyp]-NH2 (disulfide 2-7 (inferred); ends not checked) [SEQ ID NO: 10] | 552 nM | 0.007 nM |
| {C20 diacid-γGlu}-KCNTATCTVARLAHQINQFTDKDKDNVAPPTNVGSNG[Hyp]-NH2 (disulfide 2-7 (inferred); not fully specified; ends not checked) [SEQ ID NO: 86] | > 5000 nM | 0.015 nM |
| {C20 diacid-γGlu}-KCATATCTVQRLAEQIYQFTDKDKDNVAPPTNVGSNG[Hyp]-NH2 (disulfide 2-7 (inferred); not fully specified; ends not checked) [SEQ ID NO: 97] | > 5000 nM | 0.016 nM |
| {C20 diacid-γGlu}-KCNTATCTVQRLAHQIYQFADKDKDNVAPPTNVGSNG[Hyp]-NH2 (disulfide 2-7 (inferred); not fully specified; ends not checked) [SEQ ID NO: 83] | 815 nM | 0.015 nM |
| {C20 diacid-γGlu}-KCNTATCTVQRLAEQIAQFTDKDKDNVAPPTNVGSNG[Hyp]-NH2 (disulfide 2-7 (inferred); not fully specified; ends not checked) [SEQ ID NO: 78] | > 5000 nM | 0.014 nM |
| {C20 diacid-γGlu}-KCNTATCTVVRLAHQIYQFTDKDKDNVAPPTNVGSNG[Hyp]-NH2 (disulfide 2-7 (inferred); ends not checked) [SEQ ID NO: 103] | > 5000 nM | 0.018 nM |
| {C20 diacid-γGlu}-KCNTATCTVQRLAEQIYQFTDKDKDQVAPPTNVGSNG[Hyp]-NH2 (disulfide 2-7 (inferred); ends not checked) [SEQ ID NO: 100] | > 5000 nM | 0.017 nM |
| {C20 diacid-γGlu}-KCNTATCTVQRLAHQIYQFTDKDKDNVAPPTNVGSNG[Hyp]-NH2 (disulfide 2-7 (inferred); not fully specified; ends not checked) [SEQ ID NO: 77] | > 5000 nM | 0.014 nM |
| KCNTATCTVQRLAHQIYQFTDKDKDNVAPRTEVGSNGY [SEQ ID NO: 102] | > 5000 nM | 0.018 nM |
